Data taken from publication PMC12207370, “Macrocyclic Peptide Probes for Immunomodulatory Protein CD59: Potent Modulators of Bacterial Toxin Activity and Antibody‐Dependent Cytotoxicity” (Angewandte Chemie (International Ed. in English), 2025).

Target: T1, biotinylated CD59 (Homo sapiens, UniProt P13987)
T1 construct: Recombinant soluble human CD59 with an additional C-terminal cysteine residue
T1 sequence (P13987 26-102 limits assumed): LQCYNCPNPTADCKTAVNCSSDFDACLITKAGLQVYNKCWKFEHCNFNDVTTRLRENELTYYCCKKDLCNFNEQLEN
Assay: mRNA-display cyclic peptide screen against CD59-biotin, NGS abundance after 6th selection round
Conditions: for Counts (raw counts for peptide sequence), Seq I: NGS sample Seq I; for Counts (raw counts for peptide sequence), Seq I / Counts (raw counts for peptide sequence), Seq II / Counts Seq I / Counts Seq II: sheet R6 (6th selection round); for Counts (raw counts for peptide sequence), Seq II: NGS sample Seq II; for Percentage of the pool, averaged across the two sequencing samples: average of Seq I and Seq II; for Percentage of the pool, averaged across the two sequencing samples / Percentage of the pool, Seq I / Percentage of the pool, Seq II / Percentage Seq I / Percentage Seq II / Percentage Average: sheet R6; for Percentage of the pool, Seq I: counts normalised by total counts of NGS sample Seq I; for Percentage of the pool, Seq II: counts normalised by total counts of NGS sample Seq II; for Percentage Seq I: counts normalised by total counts of sample Seq I; for Percentage Seq I / Percentage Seq II: percentage of the pool; for Percentage Seq II: counts normalised by total counts of sample Seq II; for Percentage Average: percentage of the pool averaged across the two sequencing samples; for Counts Seq I / Counts Seq II: raw NGS counts of peptide sequence; for Counts Seq I: sequencing sample Seq I; for Counts Seq II: sequencing sample Seq II
Method in brief: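 Peptide–mRNA fusions were made by in vitro translation with a customised PURE express kit. The kit lacked release factor 1 and methionine and was supplemented with […] initiator tRNA carrying N-chloroacetyl-d-tyrosine. Thioether macrocycles were formed, then enriched and amplified over iterative rounds on CD59-biotin immobilised on streptavidin beads. NGS read counts per sequence were recorded after the 6th selection round.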

Sequence | Counts (raw counts for peptide sequence), Seq I | Counts (raw counts for peptide sequence), Seq II | Percentage of the pool, averaged across the two sequencing samples | Percentage of the pool, Seq I | Percentage of the pool, Seq II | Percentage Seq I | Percentage Seq II | Percentage Average | Counts Seq I | Counts Seq II
CSRLTSRGWT | 62 | 5 | 0.013% | 0.014% | 0.012% |  |  |  |  | 
CYGGRTFIYEWS |  |  |  |  |  | 0.037% | 0.042% | 0.040% | 164 | 18
CFTLRLSQTSV |  |  |  |  |  | 0.156% | 0.160% | 0.158% | 682 | 69
YVYGSRDRC | 74 | 5 | 0.014% | 0.017% | 0.012% |  |  |  |  | 
CFQRRTLGPDAI |  |  |  |  |  | 0.094% | 0.088% | 0.091% | 412 | 38
CYGGRTFIHAWS |  |  |  |  |  | 0.054% | 0.049% | 0.051% | 237 | 21
CFAGRLTEGV |  |  |  |  |  | 0.035% | 0.044% | 0.040% | 155 | 19
CFTGRLSLDSI |  |  |  |  |  | 0.031% | 0.039% | 0.035% | 134 | 17
WIYGGRHFRLS | 82 | 2 | 0.012% | 0.019% | 0.00464% |  |  |  |  | 
GRYNECHFITS | 59 | 6 | 0.014% | 0.013% | 0.014% |  |  |  |  | 
WIRGSRWWTQS |  |  |  |  |  | 0.033% | 0.035% | 0.034% | 146 | 15
GRLNECHVIRP | 43 | 7 | 0.013% | 0.010% | 0.016% |  |  |  |  | 
CEALLRRGWD |  |  |  |  |  | 0.094% | 0.079% | 0.087% | 413 | 34
CFANRLYGSDSH |  |  |  |  |  | 0.031% | 0.035% | 0.033% | 135 | 15
SSALERIGKCP |  |  |  |  |  | 0.227% | 0.211% | 0.219% | 991 | 91
SAYGSRDFAWA |  |  |  |  |  | 0.024% | 0.023% | 0.024% | 106 | 10
HVFGNRPFTRG | 73 | 5 | 0.014% | 0.017% | 0.012% |  |  |  |  | 
WILGSRWWTQT |  |  |  |  |  | 0.032% | 0.030% | 0.031% | 139 | 13

Sequence | Counts (raw counts for peptide sequence), Seq I | Counts (raw counts for peptide sequence), Seq II | Percentage of the pool, averaged across the two sequencing samples | Percentage of the pool, Seq I | Percentage of the pool, Seq II | Percentage Seq I | Percentage Seq II | Percentage Average | Counts Seq I | Counts Seq II
CFAGRLTVDAV |  |  |  |  |  | 0.037% | 0.030% | 0.034% | 163 | 13
CFSSRTGTTSV | 39 | 10 | 0.016% | 0.009% | 0.023% |  |  |  |  | 
STKNDYNNVPC |  |  |  |  |  | 0.012% | 0.026% | 0.019% | 54 | 11
LKPNGRCLPKV |  |  |  |  |  | 0.272% | 0.283% | 0.277% | 1189 | 122
CFASRTLLNTSV |  |  |  |  |  | 0.102% | 0.104% | 0.103% | 446 | 45
VAHGSKNSQFW |  |  |  |  |  | 0.349% | 0.325% | 0.337% | 1526 | 140
CYGNSHAS | 36 | 8 | 0.013% | 0.008% | 0.019% |  |  |  |  | 
CFVGRLTLTST | 65 | 3 | 0.011% | 0.015% | 0.007% |  |  |  |  | 
CFAGRPTIDAV |  |  |  |  |  | 0.018% | 0.028% | 0.023% | 80 | 12
SSYRELAHLPC |  |  |  |  |  | 0.031% | 0.046% | 0.039% | 135 | 20
WAKGSDTFTSG | 141 | 1 | 0.017% | 0.032% | 0.00232% |  |  |  |  | 
CFIRRSIESGTA | 56 | 10 | 0.018% | 0.013% | 0.023% |  |  |  |  | 
CFSNRISGPAV |  |  |  |  |  | 0.197% | 0.214% | 0.205% | 864 | 92
TSYGSRVFAYF |  |  |  |  |  | 0.031% | 0.030% | 0.031% | 135 | 13
CIDVYGRMWA |  |  |  |  |  | 0.086% | 0.091% | 0.088% | 375 | 39
SKNGLTFLCS |  |  |  |  |  | 0.016% | 0.032% | 0.024% | 70 | 14
AVHGSSFYVWG |  |  |  |  |  | 0.037% | 0.039% | 0.038% | 164 | 17
